Measurements reported in paper PMC6856053 (Frontiers in Neuroscience, 2019).
Changes are numbered by the printed parent chain.

Columns and labels:
Assay in all cases: pull-down; GST-MIT domain (bait) and myc-6His MIM (prey), 2 nmole each, on 20 ul glutathione sepharose in 1 ml PBS + 0.1% NP-40 + 1 mM DTT, overnight 4 C; Coomassie and anti-myc blot
Details in all cases: both partners purified
[1] = molecular target: T1, GST fused to the spastin MIT domain (residues 110-199) E112K (human, UniProt Q9UBP0 110-199, E112K)
T1 construct: spastin, residues 110-199 holding the MIT domain; patient mutation; Cloned into the BamHI-XhoI sites of pGEX-4T2; source: E. coli BL21(DE3)pLysS, purified (GST sepharose, eluted with 10 mM glutathione)
T1 sequence (looked up): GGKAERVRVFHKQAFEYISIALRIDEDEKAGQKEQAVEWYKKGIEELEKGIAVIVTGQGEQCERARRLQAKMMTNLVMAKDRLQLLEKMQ

[2] = molecular target: T2, GST fused to the spastin MIT domain (residues 110-199) R115C (human, UniProt Q9UBP0 110-199, R115C)
T2 construct: spastin, residues 110-199 holding the MIT domain; patient mutation (SPAST c.343C>T); Cloned into the BamHI-XhoI sites of pGEX-4T2; source: E. coli BL21(DE3)pLysS, purified (GST sepharose, eluted with 10 mM glutathione)
T2 sequence (looked up): T1 sequence (looked up) with K3E, R6C

[3] = molecular target: T3, GST fused to the spastin MIT domain (residues 110-199) V162I (human, UniProt Q9UBP0 110-199, V162I)
T3 construct: spastin, residues 110-199 holding the MIT domain; benign polymorphism; Cloned into the BamHI-XhoI sites of pGEX-4T2; also called MIT containing the benign polymorphism V162I; source: E. coli BL21(DE3)pLysS, purified (GST sepharose, eluted with 10 mM glutathione)
T3 sequence (looked up): T1 sequence (looked up) with K3E, V53I

[4] = molecular target: T4, GST fused to the spastin MIT domain (residues 110-199) N184T (human, UniProt Q9UBP0 110-199, N184T)
T4 construct: spastin, residues 110-199 holding the MIT domain; patient mutation; Cloned into the BamHI-XhoI sites of pGEX-4T2; source: E. coli BL21(DE3)pLysS, purified (GST sepharose, eluted with 10 mM glutathione)
T4 sequence (looked up): T1 sequence (looked up) with K3E, N75T

[5] = molecular target: T5, GST fused to the spastin MIT domain (residues 110-199) L195V (human, UniProt Q9UBP0 110-199, L195V)
T5 construct: spastin, residues 110-199 holding the MIT domain; patient mutation; Cloned into the BamHI-XhoI sites of pGEX-4T2; source: E. coli BL21(DE3)pLysS, purified (GST sepharose, eluted with 10 mM glutathione)
T5 sequence (looked up): T1 sequence (looked up) with K3E, L86V

[6] = molecular target: T6, GST fused to the wild-type spastin MIT domain (residues 110-199) (human, UniProt Q9UBP0 110-199)
T6 construct: spastin, residues 110-199 holding the MIT domain; Cloned into the BamHI-XhoI sites of pGEX-4T2; also called WT; source: E. coli BL21(DE3)pLysS, purified (GST sepharose, eluted with 10 mM glutathione)
T6 sequence (looked up): T1 sequence (looked up) with K3E

binding result [1]: binds
binding result [2]: binds
binding result [3]: binds
binding result [4]: binds
binding result [5]: binds
binding result [6]: binds
B1: single MIM of CHMP1B, residues 174-199, myc- and 6His-tagged (domain or fragment, UniProt Q7LBR1 174-199, looked up)
chain: GSVGTSVASAEQDELSQRLARLRDQV
notes: CHMP1B, residues 174-199 holding the single MIM; Cloned into the BamHI-NotI sites of pGEX-6P-1; also called CHMP1B MIM; CHMP1B (amino acids 174-199); source: E. coli BL21(DE3)pLysS, purified (GST sepharose, GST removed with Prescission protease)
